Source: patent US20230399412A1 (NANJING IASO BIOTECHNOLOGY, published 2023)

T1: Biotinylated Human CD27 Ligand, Avitag, human Fc Tag (ACRO biosystem, TN7-H82F4) (human, UniProt P32970 39-193, biotinylated (Avitag))
T1 construct: Bought reagent; also called Acro-CD70-Fc-Bio; not shown: human Fc tag and Avitag
T1 sequence (looked up): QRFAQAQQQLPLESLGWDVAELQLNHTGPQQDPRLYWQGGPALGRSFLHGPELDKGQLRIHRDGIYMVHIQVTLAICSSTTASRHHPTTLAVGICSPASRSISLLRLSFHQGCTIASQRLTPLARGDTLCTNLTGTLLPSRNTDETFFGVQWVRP

T2: Biotinylated Human CD27 Ligand, HIS, Avitag (ACRO biosystem, CDL-H82Q9) (human, UniProt P32970 39-193, biotinylated (Avitag))
T2 construct: Bought reagent; also called Acro-CD70-his-Bio; CD70-his-Bio; not shown: His tag and Avitag
T2 sequence (looked up): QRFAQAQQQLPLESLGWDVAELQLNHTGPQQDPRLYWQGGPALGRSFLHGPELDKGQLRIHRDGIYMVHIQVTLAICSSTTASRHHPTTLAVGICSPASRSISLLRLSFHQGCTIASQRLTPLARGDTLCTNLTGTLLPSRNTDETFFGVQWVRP

T3: Biotinylated Human Siglec-2/CD22 Protein, human Fc, Avitag (ACRO biosystem, SI2-H82F8) (human, UniProt P20273 20-687, biotinylated (Avitag))
T3 construct: Irrelevant control antigen; also called Acro-CD22-Bio; CD22-Fc-Bio; not shown: human Fc and Avitag
T3 sequence (looked up): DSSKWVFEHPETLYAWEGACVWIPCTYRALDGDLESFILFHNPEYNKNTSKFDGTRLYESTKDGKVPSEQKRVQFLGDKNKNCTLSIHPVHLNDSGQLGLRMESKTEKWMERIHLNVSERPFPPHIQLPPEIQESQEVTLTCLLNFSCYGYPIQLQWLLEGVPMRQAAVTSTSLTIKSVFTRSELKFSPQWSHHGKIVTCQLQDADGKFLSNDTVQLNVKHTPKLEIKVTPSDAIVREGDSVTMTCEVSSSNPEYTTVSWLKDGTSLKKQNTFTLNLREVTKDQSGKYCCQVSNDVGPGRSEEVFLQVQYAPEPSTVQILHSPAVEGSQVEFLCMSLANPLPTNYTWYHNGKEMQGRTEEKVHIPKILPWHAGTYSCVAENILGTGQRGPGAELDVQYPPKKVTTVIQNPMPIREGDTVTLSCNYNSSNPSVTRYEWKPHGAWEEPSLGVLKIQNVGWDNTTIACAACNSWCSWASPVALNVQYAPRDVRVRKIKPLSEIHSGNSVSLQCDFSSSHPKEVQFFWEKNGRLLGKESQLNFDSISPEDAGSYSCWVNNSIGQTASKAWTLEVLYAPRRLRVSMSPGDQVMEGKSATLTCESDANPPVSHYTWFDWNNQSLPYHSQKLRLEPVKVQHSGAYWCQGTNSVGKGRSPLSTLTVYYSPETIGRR

T4: Human CD70/CD27 Ligand Protein-his-Trimer (Kactus, CD7-HM271-1) (human, UniProt P32970 39-193)
T4 construct: Bought reagent, named a trimer; also called Kactus-CD70 Trimer-his; Kactus-CD70Trimer-his; not shown: His tag (and any trimerisation part)
T4 sequence (looked up): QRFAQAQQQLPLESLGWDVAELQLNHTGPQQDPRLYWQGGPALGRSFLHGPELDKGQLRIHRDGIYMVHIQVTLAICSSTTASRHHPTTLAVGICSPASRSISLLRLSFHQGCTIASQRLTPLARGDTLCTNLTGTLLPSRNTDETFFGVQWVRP

T5: Human CD70/CD27 Ligand Protein (human FC Tag)-Biotin (Kactus, CD7-HM270) (human, UniProt P32970 39-193, biotinylated)
T5 construct: Bought reagent; also called Kactus-CD70-Fc-Bio; Katcus-CD70-Fc-Bio; not shown: human Fc tag
T5 sequence (looked up): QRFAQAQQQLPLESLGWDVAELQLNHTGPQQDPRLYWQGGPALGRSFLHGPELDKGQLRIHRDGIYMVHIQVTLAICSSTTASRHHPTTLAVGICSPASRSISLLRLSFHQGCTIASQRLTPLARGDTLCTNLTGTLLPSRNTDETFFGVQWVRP

T6: Human CD70/CD27 Ligand Protein-his-Trimer-Biotin (Kactus, CD7-HM271) (human, UniProt P32970 39-193, biotinylated)
T6 construct: Bought reagent, named a trimer; also called Kactus-CD70Trimer-his-Bio; Katcus-CD70 Trimer-His-Bio; not shown: His tag (and any trimerisation part)
T6 sequence (looked up): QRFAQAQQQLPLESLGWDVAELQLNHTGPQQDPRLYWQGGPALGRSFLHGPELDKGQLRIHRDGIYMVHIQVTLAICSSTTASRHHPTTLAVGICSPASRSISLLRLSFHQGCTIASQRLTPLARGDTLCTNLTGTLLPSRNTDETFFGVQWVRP

T7: CD70 on the cell surface of CD70-positive cell lines (UniProt P32970 1-193, limits assumed)
T7 construct: whole, on cells; One molecule for all cell lines; the cell line is named under assay; also called natural CD70 on the cell surface; CD70 antigen on Raji, U266, THP-1, RS4:11, REH, Molm-13 cells
T7 sequence (looked up): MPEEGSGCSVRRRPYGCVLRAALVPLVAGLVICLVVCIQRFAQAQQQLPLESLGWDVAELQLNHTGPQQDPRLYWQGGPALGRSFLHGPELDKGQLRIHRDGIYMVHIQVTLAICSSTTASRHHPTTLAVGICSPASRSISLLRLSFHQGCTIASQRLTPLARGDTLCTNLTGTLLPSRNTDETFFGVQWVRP


How the values were obtained:
[1] = biological target: T1, Biotinylated Human CD27 Ligand, Avitag, …; test: phage ELISA
[2] = biological target: T2, Biotinylated Human CD27 Ligand, HIS, …; test: phage ELISA
[3] = biological target: T3, Biotinylated Human Siglec-2/CD22 …; test: phage ELISA
[4] = biological target: T4, Human CD70/CD27 Ligand …; test: phage ELISA
[5] = biological target: T5, Human CD70/CD27 Ligand Protein (human …); test: phage ELISA
[6] = biological target: T6, Human CD70/CD27 Ligand …; test: phage ELISA
[7] = biological target: T7, CD70 on the cell surface of …; test: phage FACS on CD70-positive cell lines (Raji, U266)

Row | Binder | binding result [1] | binding result [2] | binding result [3] | binding result [4] | binding result [5] | binding result [6] | binding result [7]
1 | phage monoclonal antibody clone #9 (VHH, single-domain antibody (heavy chain variable region alone); also called VHH 09; 09 antibody) VHH: EVQLLESGGGLVQPGGSLRLSCAASGFTFNIDAMGWVRQAPGKGLEWVSSISSSGGTTYYADSVKGRFTISRDNSKNTLYLQMNSLRAEDTAVYYCARSRYSVPDGRGSYDVWGQGTLVTVSS | binds | binds | no binding | binds | binds | binds | binds
2 | phage monoclonal antibody clone #6 (scFv, also called scFv 06; Scfv06) scFv: QAVLTQPPSASATPGQRVSISCSGSSSNIGRNTVNWYQHLPGTAPKLLIYSNDHRPSGVPDRFSGSQSGTSASLAISGLQSEDEADYYCASWDDSLTGWVFGGGTKVTVLGSRGGGGSGGGGSGGGGSLEMAQVQLVQSGAEVKKAGSSLKVSCKANGGSFTNYLINWVRQAPGQGLEWMGGIIPVYGTPIYSQKFQGRVTFTADEPTRTAYMELSSLTFEDTAVYYCVREDEGYGDLYLAYWGQGTLVTVSS | binds | binds | no binding | binds | binds | binds | binds
3 | phage monoclonal antibody clone #13 (VHH, single-domain antibody (heavy chain variable region alone); also called VHH13; VHH 13) VHH: EVQLLESGGGLVQPGGSLRLSCAASGFTFSSEAMGWVRQAPGKGLEWVSSINGSGRNTYYADSVKGRFTISRDNSKNTLYLQMNSLRAEDTAVYYCARKHGEYYDSGYDVWGQGTLVTVSS | – | – | no binding | – | – | – | –
4 | phage monoclonal antibody clone #20 (VHH, single-domain antibody (heavy chain variable region alone); also called VHH20; VHH 20) VHH: EVQLLESGGGLVQPGGSLRLSCAASGFTFSSYAMGWVRQAPGKGLEWVSSISGYGEETYYADSVKGRFTISRDNSKNTLYLQMNSLRAEDTAVYYCARFYYRYWKEFDYWGQGTLVTVSS | binds | binds | no binding | binds | binds | binds | binds
5 | phage monoclonal antibody clone #21 (VHH, single-domain antibody (heavy chain variable region alone); also called VHH21; VHH 21) VHH: EVQLLESGGGLVQPGGSLRLSCAASGFTFSNYAMGWVRQAPGKGLEWVSSITGLGGNMYYADSVKGRFTISRDNSKNTLYLQMNSLRAEDTAVYYCARMYYSQGVNNYSYPSTDIWGQGTLVTVSS | binds | binds | no binding | binds | binds | binds | binds
